Measurements published in the DeepSol protein solubility set.

Assay: soluble on expression in E. coli; label from the status in PepcDB or PDB records

Sequence | soluble on expression in E. coli
MEVPKNPYESTWTGYDFYYEKEPKKVPPSAGSGKMPAFQSIASISTDRESPEDPGNSGYLASGAESGPKKTTSKPATTPTPEPTTTPVEEEKVKVSPSSSTKDPSKLHKTTKTPVTITNIISTTTAPPAPSRAPENDPESGSDQSESTDNLDLLYGGGSSATATGEDKKARHSTTNNPNFCTDPPKLHDPPPPHPSAPQNLLTQLIQKKKDAPNKGSSEKSSKWSDDHASGYPEGSAPSAEPSENQYEQDGSIPSSNDYKELTDVPGTKPSSSASRGSNMAGNPTAPLTTTQHTFAPNSTETSRSSTSRGKAPGTEPKSEARYSSQNPYSDNSSTQKPEYESGYPAVSGANSRAQIPNITDYTKPSAVSIEYASSSKERSDPPFSTPLTSNSQHVLTQPRPRDYEDGPQETTRTKASGTKSPNSLQAPQQTAAHLMKNARAPGPEPSLHSTTTHHVQTPIITIAPKFSEPSPYAENIMLTPKQAPGTEPRSNSQNPQTDRLASQSGYESGGPGRPQNVSIRHRENPKGSDAISRTAITPSKIDYFAPSSPTGPIGYERQVPSFKEGPDHQYTKYSTLNSPPAPSPQESSTITHHVSTSPDFLEPSSESSVLLPKQAPGTNPSTSNSPPGYSELIGPSGPESQGYEPMGNNGPSIFEGPGTESGYSEPKALSTASQKTKPDDKPYEIPRSIEPSNSKPYPSDSSWSDHDNAPGSEPSYIPDVLDYGARANNHAGKMMNMSHATSPSTGSPSNSNNAISARDPYDHFGTITAPSDIPRANSNFEEYPDDGGYDGTNDVAIVPLRTQHGTNPSTITTTNTQVRAQISEIDRIAESFENSAREPVEYEQRITSESSKGITAVTGKDFMKKLGRKSPTCCSCCDEKQSVSRNIETQADPLHVQHAVDPSRQLVESEPVQNFVPLQNTVGGNAYIQPQPVAQQQTIYQQPFQQYQPQYPQSYQQPSCGCQPQPQNCCAPPAPCCLPTIPCCPPIPCCPQPKICCQPAPVCLPPPTCCSINFKLPTIPICGRACPSCPCRRRMHKSRRLKRHSINSNCHQCSSAGEPWRSVLHHREKRAAPGCTSGFSTMSQNSCGTCGASNLRSPRVKRMGCLPCLGRKKRDTDENSHIRVKRMGCLPCLGRKKRSTLSQSGCSQCNSMGHLFNRYKRSLFGGCSPCAPQQPCGCGRKKRSVTMKLVKRAPMQCDSTCCDFSRCPYRQKKEALVPFM | not soluble
MVAPGKKFTLRHIFKNVTKWKTGEIFYSPDEEHFNVPWQMCIHRENGNMCVILCCLKVEEDRVPWKINFEYQLKIVNISGMSIVKAGNKICTEKRRFVRRQFISRNTLKSGYLVDDIITVEATVKITKVSKKQLRSFDKSNKKFSDVILAIEDEKFYVLKKFLASHSTYFKTLLLGKFEEAERQEVKLQDIDSTDFQNLMEVLYGESAIDDGTIKGILELADMYDMPFPIRKCEEFLIDSSEKSIKEKLKIAKQYKMENLKNSCLSKVNTVRDIKAAMTGDPTEMDLSVLAALLGKSLALH | not soluble
MIVGRDGVGVVEHAEQGPRIAVAVVTMGNRPAEVDALLASVAKQDLPPARIVIVGNGCPLPEFARRLDLPGEVTGIEVDENLGCPGGRNVALAKLREFGDVDVVVELDDDGLLVDADVLRRVRDLYAADPRLGIVGFRIADENGETQRRHVPRVGKSDPLRGGPVTGFLGGGHALSMAMLARTGDWPAEFFFAHEETDLAWRATDAGWTILYAPELLLQHPKTSPARHAIYHRVTARNRVWLARRRLPLPLIPVHLGIWIAVTLVRTRSAGGLRAWFGGFMEGVRTSGGERRPMRWRTVWRLTRLGRPPVILEHHHHHH | not soluble
QKKIADRLMKFEEQLPEALDIIKRVLQAGQPITQAFGEVGREVSAPLGPEFLNTFNLLNYGYDLRLAIMQMSERTPTVSMLAFSSAVLLQKETGGNLVENIEKLSHILRARFKLARKIKTISAESRMS | not soluble
MSLRLSLLSSTSKYKVTVAEVQRRLSPPECLNASLLGGVLRRAKSKNGGRSLREKLDKIGLNLPAGRRKAAHVTLLTSLVEGEAVHLARDFAYVCEAEFPSKPVAEYLTRPHLGGRNEMAARKNMLLAAQQLCKEFTELLSQDRTPHGTSRLAPVLETNIQNCLSHFSLITHGFGSQAICAAVSALQNYIKEALIVIDKSYMNPGDQSPADSNKTLEKMEKHREGHHHHHH | not soluble
MGSDKIHHHHHHMYLIGSDIGTQGTKSVIVNEKGEVLAEAFREYEVITPKPNWAEQWPDVWVKAVFETVKEVVEKSGVSKKEIAGIAISGLYGGSGIPVDRNMQPLRPCLIWMDRRAVKETEWVKQNVPKEKLFEITGNYVDSYFGFTKIMWIRNNEPEIWEKIYKFITPKDYVIYQMTGEVVIDYSSAGNLGGVFDIRKLTWSKEMCDVLGIPIEFLPERIVKSSDVVGRVTKEASELCGLLEGTPVVAGGIDAPVAQLSAGALEEGEHVAMVGTSTCWGTVHDGSKLAFGLVNYPYVVYDTERIYTFGGSATTGALARWFKEQFGESETIVGERTGISPYQLFDKEVANIPAGSEGIIVLPYFMGERSPIWDPTARGVFFGVTLYHKRAHLYRALMEGGAYALRHNMEEGLKAGLKLNDECWIVGGVSKSSVWVKIFADVTGFKMRQVASLVEAPYGDAFLAGLGTGVIDKPERIKEWVKYRDPVEPDPENKKIYDRYYEIYRELYERTKDLMARL | not soluble
TGSIGSAARKILLAKTDVQLTLYSRRADRLKLIVDRETAVAGSVTDDDQLDQAIKGQDFVFVALNGDMDSFAAHIISAMERNGIQRLIFITTMGIYQEIPAWLGDSPEPYHNPILKSFRQAADRIEQSDLNYTIIRPGWYNN | not soluble
MGSWSEKAFSASKLDDAIAAKFGSLPIQESTAIQIKAPEIAENGAFVPVTVATSIPGATNISIFTPANFSPMVASFDVLPRMKPEVSLRMRMAKTENLVVVVQAGGKLYRAVREVKVTIGGCGG | soluble
MAKEKARYFTFLLYPESIPSDWELKLETLGVPMAISPLHDKDKSSIKGQKYKKAHYHVLYIAKNPVTADSVRKKIKLLLGEKSLAMVQVVLNVENMYLYLTHESKDAIAKKKHVYDKADIKLINNFDIDRYVTLDVEEKTELFNVVVSLIRAYTLQNIFDLYDFIDENGETYGLTINLVNEVIAGKTGFMKLLFDGAYQRSKRGTKNEER | soluble
MPRTIWSGAISFGLVTVPIHVVSATEDHSVRFHQYHLEDMGRVRVRKYCELEDREVTQDEIGKGYELSKDTVIPVLDEELRELPLPTAKAIEIEAFVPLASIDPMGIGEGYYLQPDGQVAAKPYKLLRQALERSSKVAVAKYAWSGRERLGMLRVREEAIVLHAMRWPDEIRD | not soluble
MSLAHGIPSQGKVTITVDEYSSNPTQAFTHYNINQSRFQPPHVHMVDPIPYDTPKPAGHTRFVCISDTHSRTDGIQMPYGDILLHTGDFTELGLPSEVKKFNDWLGNLPYEYKIVIAGNHELTFDKEFMADLVKQDYYRFPSVSKLKPEDFDNVQSLLTNSIYLQDSEVTVKGFRIYGAPWTPWFNGWGFNLPRGQSLLDKWNLIPEGIDILMTHGPPLGFRDWVPKELQRVGCVELLNTVQRRVRPKLHVFGGIHEGYGIMTDGYTTYINASTCTVSFQPTNPPIIFDLPNPQGSEGHHHHHH | soluble
MTRVIIDGDACPVVDSVIELTTGTGIFVTILRSFSHYSNKVLPNHVETIYIDDGPDAVDYKIVKLATPEDIVITQDYGLASLLLSKVKIVMHHKGHLYRSSNIDMLLQQRYNNAQIRKQGGRHKGPPPFSKEDKKQFERAFKSVIKQLLEHHHHHH | not soluble
MLLSPPTNCRFFCFLYFPKVSSSSWEEDGFDARTLLSTPTDSSGFSLYVFSVLFCFSNLL | not soluble
QALASDSEEADEVPEWLREGEFVTVGAHKTGVVRYVGPADFQEGTWVGVELDLPSGKNDGSIGGKQYFRCNPGYGLLVRPSRVRRAT | soluble
MGASKDAMDEEGNAAADLGLVARIRESFDSLTATEREAAQFILGHLTDVLVCNSVELSQLSGISQPTLSRLYRKLGYANAGEFRRDVRRVHRPGSPELSRHTQCDDLVADHLRRDEESLKRTFEGIDRAQLSSACQAMATAPHVAVVGYHSSYPVALHMREQLMRLRGNVDILPNPGQSIAEDLVDYAAGDVIVIIGVGRRLPFFSRLIDVMLERGLTVVVIGDISARNAVIGRNVAFFKVVLSSHVLTSFTAAFALIALMVDEVGKCLVDTEDEVHARIEGINDCFDALNELED | not soluble
MNGDDTFARRPTVGAQIPEKIQKAFDDIAKYFSKEEWEKMKVSEKIVYVYMKRKYEAMTKLGFKAILPSFMRNKRVTDFQGNDFDNDPNRGNQVQRPQMTFGRLQGIFPKIMPKKPAEEGNVSKEVPEASGPQNDGKQLCPPGKPTTSEKINMISGVLQRYCRFGSRPLQ | soluble
MAHHHHHHMKENYMIRHLFKKYGLKCYNSMSKGLLSNIRNGNSIVLYEKNVNKNLMNLLYKKHYNTYKNRVFNSAMYNNTPSNYMNNPENNNMNHLQNNSNYKYENPNNYYQPKYNNNLNNETNENNTTYQYFSIFGSTAMCLIKPIFPDYITNKNKVTIYGKGGFQFVFMRKQSNSNKYDKNNKMNIFIKINSLSNVLSLNDVEKLKNPIIIKGSNNNYLTIDKHKEKKDHIVIKYKYQPSNSPENNFNDMNNMDTDINENMIINDVNDEKRNNFEELHVSFSFSEFLLFQKAANLLLPQLIGWAKQY | not soluble
MVTKRIIPCLDVHNGRVVKGVNFVNIRDAGDPVEIASYYDKAGADELTFLDITASAEARNIMIDVVRRVAEQVFIPFTVGGGIRTVEDFREILKAGADKVSINSAAVKRPELISEAASRFGSQCVVVAIDAKRRDDNSGWDVYINGGRINTGKDAVEWAVEVEKLGAGEILLTSMDCDGTKKGYDIELTRKVSESVRIPVIASGGAGTMEHFREALVEGKADAVLAASLFHYREIEIMELKKYLKENGIEIRM | not soluble
MLVPRGSMAPIGSVVIVGRIILSGRGGPITAYSQQTRGLLGCIITSLTGRDKNQVEGEVQVVSTATQSFLATCVNGACWTVFHGAGSKTLAGPKGPITQMYTNVDQDLVGWPAPPGARSLTPCTCGSSDLYLVTRHADVIPVRRRGDTRGSLLSPRPISYLKGSSGGPLLCPSGHVVGIFRAAVCTRGVAKAVDFIPVESMETTMR | soluble
MKQTVLKNNLQNLLESAENILLLQGPVGDFFLRLADWLTANGKTVHKFNFNAGDDYFYPPTQAHTVVFNDNYDAFPEFLQEYITQHHIQAVVCFGDTRPYHVIAKRIANENQASFWAFEEGYFRPYYITLEKDGVNAFSPLPRRADFFLEQFPKLAQQEYKAPTPVHGGFTPMAKNAIRYYIELFRNPRKYPDYIHHRAPNAGHYLKPWSLSILKRLNYYIEDIQIAKRVEAGKYGKFFIVPLQVFNDSQVRIHCDFPSVRSFLLHVLSSFAEHAPADTNIIIKHHPMDRGFIDYWRDIKRFIKEHPELKGRVIYVHDVPLPVFLRHGLGMVTINSTSGLSGLIHNMPVKVLGRAYYDIPGITDQNTLAEFWNHPTPPDKELFHAYRMYHLNVTQINGNFYSQVFFPNKKTSNSSTPVI | not soluble
MSLKSYILLIKCKTDTTIRTKSKKFLIRKGVYAYVGSCGRSCGRRVSRHFNKEKSNYHWHIDYLTKACEPIGVFVMNHVGEKELALLFSKNNAFIEEFGSSDDKDAKSHLFIVNDLQELCSTVCDKSREREGHHHHHH | soluble
MYSVLIPVDRDEARASNQASYVSQLPDATDTVEATVLYVVPPDEFADAAEVAFDDIDAAVQAANQLEAAGVSVTRMVDDGGVAQQIVRTATELDSDEIVVGGRKRSGVSKVLLGSTAQDVLLSAERPVTITGESVVL | not soluble
